Data from patent US20170008928A1, “NOVEL PEPTIDES AND PEPTIDE DERIVATIVES AND USES THEREOF” (Novo Nordisk A/S, priority 2015, published 2017).
Where two headings read alike, the source gives them in different places. Values belong to the molecule of their own block, whether it stands above or below them. Starred links: 1 amine or outer side, 2 acyl side, 3 side chain; linkers in the order of their positions; H or OH if unused. Non-standard residues stand in square brackets, D forms with d. Residues, ends and D or L forms follow the SMILES beside them. No end group written: not given here. *: point of attachment. Phe(4-CH2SO3H) = N[C@@H](Cc1ccc(CS(=O)(=O)O)cc1)C(=O)O; C20 diacid = O=C(O)CCCCCCCCCCCCCCCCCCC(=O)*; sY = N[C@@H](Cc1ccc(OS(=O)(=O)O)cc1)C(=O)O; C18 diacid = O=C(O)CCCCCCCCCCCCCCCCC(=O)*; γGlu = O=C(O)[C@H](CCC(=O)[*:2])N[*:1]; βAsp = O=C(O)[C@H](CC(=O)[*:2])N[*:1]; NMeF = CN[C@@H](Cc1ccccc1)C(=O)O; dNMeD = CN[C@H](CC(=O)O)C(=O)O; Nle = CCCC[C@H](N)C(=O)O; AEEA = NCCOCCOCC(=O)O

Tests used:
[1] = molecular target: T1, human cholecystokinin-2 receptor (CCK-2R) (Homo sapiens, UniProt P32239); assay: In vitro potency on CCK-2R, whole cell functional assay (IP1 accumulation, IP-One HTRF); assay type: cell-based
T1 construct: host or cells: 1321-N1 cells (plasma membranes prepared by Evotec AG Hamburg)
T1 sequence (P32239 1-447): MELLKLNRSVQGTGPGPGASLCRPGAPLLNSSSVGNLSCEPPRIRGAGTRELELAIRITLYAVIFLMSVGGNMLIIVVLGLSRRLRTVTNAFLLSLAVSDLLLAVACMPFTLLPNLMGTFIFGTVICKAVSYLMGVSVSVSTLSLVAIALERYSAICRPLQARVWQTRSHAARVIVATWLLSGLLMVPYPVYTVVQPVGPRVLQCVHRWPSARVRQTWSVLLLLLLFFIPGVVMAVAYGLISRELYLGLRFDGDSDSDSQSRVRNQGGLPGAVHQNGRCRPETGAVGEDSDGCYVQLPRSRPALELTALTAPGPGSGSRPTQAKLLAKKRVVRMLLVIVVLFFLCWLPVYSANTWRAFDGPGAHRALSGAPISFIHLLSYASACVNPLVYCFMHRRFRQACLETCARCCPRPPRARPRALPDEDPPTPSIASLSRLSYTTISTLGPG

[2] = molecular target: T1, human cholecystokinin-2 receptor (CCK-2R); assay: In vitro receptor binding to CCK-2R, SPA displacement of [125I]-CCK-8s from plasma membranes
Protocol: The in vitro binding affinity is a measure of the strength of attraction between a receptor and its ligand.
Displacement of radio ligand was measured as reduction in light emission from SPA beads.
The cells used in these assays were 1321-N1 cells stably expressing the CCK-1R or the CCK-2R (Perkin Elmer product numbers ES-530-A and ES-531-A, respectively see www.perkinelmer.com/Catalog/Product/ID/ES-530-A or -ES-531-A, respectively).
The cells were cultured in an incubator (95% RH (relative humidity), 5% (of standard atmospheric pressure) CO2, 37° C.) in cell culture medium (DMEM (Lonza catalogue BE-12-604F/U1), with 10% (v/v) Foetal Calf Serum (FCS, Gibco catalogue 16140-071), 1% (w/w) Sodium pyruvate (Gibco catalogue 11360-039), 500 μg/ml Geneticin® (G418) (Gibco catalogue 10131-027), 25 μg/ml Zeocin™ (Invitrogen catalogue R250-05), 1% (w/w) Pen/Strep (Gibco catalogue 15140-122)).
Plasma membranes were prepared by Evotec AG Hamburg by use of the ParrBomb (#4635, Parr Instrument Company). Cells were lysed with a lysis buffer (50 mM Tris, 2.5 mM EDTA, pH7) with added protease inhibitors (Complete Proteaseinhibitors EDTA-free (#05056489001, Roche), 1 tablet per 50 mL lysis buffer). The membrane fraction was separated by centrifugation. First, the cell lysate was centrifuged at 1000×g for 10 minutes at 4° C. The pellet was discarded and the supernatant was then centrifuged at 100.000×g for 30 minutes at 4° C. The supernatant was discarded and the pellet was re-suspended in 1 ml/5×10^8 cells ice cold membrane buffer (50 mM Tris, 320 mM Sucrose and Complete Proteaseinhibitors EDTA-free (#05056489001, Roche); pH7.4) and homogenised with dounce homogeniser. The protein concentration was determined using the Pierce™ BCA Protein Assay Kit according to kit manual, and the membrane preparation was adjust to the desired protein concentration with membrane buffer and aliquoted into pre-cooled tubes, snap-frozen in liquid nitrogen, and stored at −80° C.
CCK receptor binding assays were performed in 96-well Optiplates (Cat #6005290, PerkinElmer, Waltham, Mass., USA) in a total volume of 200 μl per well. CCK derivatives in 80% DMSO stock solutions of 800 μM were serially diluted […] in assay buffer (50 mM Tris/HCl, 4.5 mM MgCl2, […], 0.02% Tween 20, 0.25% ovalbumin, 0.1% pluronic F-68, pH 7.4) to final assay concentrations ranging from 10^−5 M (ten μM) to 10^−12 M (one pM).
Fifty μl of reference or test compounds were added to the Optiplates (using technical duplicates, i.e. two wells of each sample, one data point being the average of two wells), followed by addition of 150 μl of the mixture of SPA bead, radio ligand, and plasma membrane. The plates were sealed and incubated in the dark at +22° C. for 2 hours on a IKA MTS plate shaker (IKA-Werke D-79219 Staufen) set at 300 rpm and thereafter centrifuged at 1500 rpm for 10 minutes in a Heraeus Multifuge 3s centrifuge. SPA bead light emission was measured in a TopCount NXT (PerkinElmer) for 2 min/well after a delay of 60 min.
As a measure of compound affinity, calculations were performed in order to determine the half maximal inhibitory concentration (the IC50 value).
The data from the TopCounter were given as counts per minute (CPM). The CPM was plotted as a function of the concentration of compound. Dose-response curves were obtained, and IC50 values were calculated, by a nonlinear three-parameter logistic equation (log(agonist) vs response) with hillslope=−1, and shared top and bottom using the software programme GraphPad Prism v 6.0 (Graph Pad software, La Jolla, Calif., USA). The highest dose tested was 10^−5 M (1×10^7 pM).
The preference of a specific compound for the CCK-1 receptor, or the CCK-1R selectivity, may be defined as IC50 (CCK-2R)/IC50 (CCK-1R).
A minimum of three biological replicates was measured for each test compound on separate assay plates.

[3] = molecular target: T2, human cholecystokinin-2 receptor (human, UniProt P32239 1-447); assay: cell-based or functional assay
T2 sequence (looked up): T1 sequence (P32239 1-447)

[4] = displacement of [125I]-CCK-8s, plasma membranes of 1321-N1 cells expressing CCK-2R, highest dose tested 1×10^7 pM, read-out: IC50 (CCK-2R)

Molecule: CC(C)C[C@H](NC(=O)[C@H](Cc1ccc(OS(=O)(=O)O)cc1)NC(=O)[C@H](CC(=O)O)NC(=O)COCCOCCNC(=O)COCCOCCNC(=O)CC[C@H](NC(=O)CCCCCCCCCCCCCCCCC(=O)O)C(=O)O)C(=O)NCC(=O)N[C@@H](Cc1c[nH]c2ccccc12)C(=O)N[C@@H](CC(C)C)C(=O)N(C)[C@H](CC(=O)O)C(=O)N(C)[C@@H](Cc1ccccc1)C(N)=O [Example 13, 2-[2-[2-[[2-[2-[2-[[(4S)-4-Carboxy-4-(17-carboxyheptadecanoylamino)butanoyl]amino]ethoxy]ethoxy]acetyl]amino]ethoxy]ethoxy]acetyl-Asp-sTyr-Leu-Gly-Trp-Leu-DMeAsp-MePhe-amide]
EC50 [1]: 79 nM
IC50 [2]: 420 nM

Molecule: CC(C)C[C@H](NC(=O)[C@H](Cc1ccc(OS(=O)(=O)O)cc1)NC(=O)[C@H](CC(=O)O)NC(=O)COCCOCCNC(=O)COCCOCCNC(=O)CC[C@H](NC(=O)CCCCCCCCCCCCCCCCC(=O)O)C(=O)O)C(=O)NCC(=O)N[C@@H](Cc1c[nH]c2ccccc12)C(=O)N1CCC[C@H]1C(=O)N(C)[C@H](CC(=O)O)C(=O)N(C)[C@@H](Cc1ccccc1)C(N)=O [Example 15, 2-[2-[2-[[2-[2-[2-[[(4S)-4-Carboxy-4-(17-carboxyheptadecanoylamino)butanoyl]amino]ethoxy]ethoxy]acetyl]amino]ethoxy]ethoxy]acetyl-Asp-sTyr-Leu-Gly-Trp-Pro-DMeAsp-MePhe-amide] ({C18 diacid-γGlu-AEEA-AEEA}-D[sY]LGWP[dNMeD][NMeF]-NH2)
EC50 [1]: 150 nM
IC50 [2]: 1000 nM

Molecule: CCCC[C@H](NC(=O)[C@H](Cc1c[nH]c2ccccc12)NC(=O)CNC(=O)[C@H](CCCCN)NC(=O)[C@H](Cc1ccc(OS(=O)(=O)O)cc1)NC(=O)[C@H](CC(=O)O)NC(=O)COCCOCCNC(=O)COCCOCCNC(=O)CC[C@H](NC(=O)CCCCCCCCCCCCCCCCC(=O)O)C(=O)O)C(=O)N(C)[C@H](CC(=O)O)C(=O)N(C)[C@@H](Cc1ccccc1)C(N)=O [Example 16, 2-[2-[2-[[2-[2-[2-[[(4S)-4-Carboxy-4-(17-carboxyheptadecanoylamino)butanoyl]amino]ethoxy]ethoxy]acetyl]amino]ethoxy]ethoxy]acetyl-Asp-sTyr-Lys-Gly-Trp-Nle-DMeAsp-MePhe-amide] ({C18 diacid-γGlu-AEEA-AEEA}-D[sY]KGW[Nle][dNMeD][NMeF]-NH2)
IC50 [2]: > 10000 nM

Molecule: Asp-sTyr-His-Gly-Trp-Nle-DMeAsp-MePhe-amide (peptide)
EC50 (CCK-2R) [3]: > 1000 nM

Molecule: Asp-sTyr-Ile-Gly-Trp-Nle-DMeAsp-MePhe-amide (peptide)
EC50 (CCK-2R) [3]: > 1000 nM

Molecule: Asp-sTyr-Leu-Gly-Trp-Nle-DMeAsp-Phe-amide (peptide)
EC50 (CCK-2R) [3]: > 1000 nM

Molecule: {C18 diacid-γGlu-AEEA-AEEA}-E[sY]LGWQ[dNMeD]F-NH2
EC50 (CCK-2R) [3]: > 1000 nM

Other lines, results leading:

EC50 ([1]; 1321-N1 cells stably expressing CCK-2R, IP1 accumulation, highest dose tested 1×10^6 pM, read-out: EC50 (CCK-2R)): > 1000 nM
IC50 [2, 4]: > 10000 nM
Molecule: CCCC[C@H](NC(=O)[C@H](Cc1ccc(CS(=O)(=O)O)cc1)NC(=O)C[C@H](NC(=O)COCCOCCNC(=O)COCCOCCNC(=O)CC[C@H](NC(=O)CCCCCCCCCCCCCCCCC(=O)O)C(=O)O)C(=O)O)C(=O)NCC(=O)N[C@@H](Cc1c[nH]c2ccccc12)C(=O)N[C@@H](CCCC)C(=O)N(C)[C@H](CC(=O)O)C(=O)N(C)[C@@H](Cc1ccccc1)C(N)=O [Example 26, 2-[2-[2-[[2-[2-[2-[[(4S)-4-Carboxy-4-(17-carboxyheptadecanoylamino)butanoyl]amino]ethoxy]ethoxy]acetyl]amino]ethoxy]ethoxy]acetyl-bAsp-Phe(4-sulfomethyl)-Nle-Gly-Trp-Nle-DMeAsp-MePhe-amide] ({C18 diacid-γGlu-AEEA-AEEA-βAsp}-[Phe(4-CH2SO3H)][Nle]GW[Nle][dNMeD][NMeF]-NH2)

IC50 [2, 4]: 430 nM
Molecule: CCCC[C@H](NC(=O)[C@H](Cc1c[nH]c2ccccc12)NC(=O)CNC(=O)[C@H](CC(C)C)NC(=O)[C@H](Cc1ccc(OS(=O)(=O)O)cc1)NC(=O)[C@H](CCC(=O)O)NC(=O)COCCOCCNC(=O)COCCOCCNC(=O)CC[C@H](NC(=O)CCCCCCCCCCCCCCCCCCC(=O)O)C(=O)O)C(=O)N(C)[C@H](CC(=O)O)C(=O)N(C)[C@@H](Cc1ccccc1)C(N)=O [Example 37, 2-[2-[2-[[2-[2-[2-[[(4S)-4-Carboxy-4-(19-carboxynonadecanoylamino)butanoyl]amino]ethoxy]ethoxy]acetyl]amino]ethoxy]ethoxy]acetyl-Glu-sTyr-Leu-Gly-Trp-Nle-DMeAsp-MePhe-amide] ({C20 diacid-γGlu-AEEA-AEEA}-E[sY]LGW[Nle][dNMeD][NMeF]-NH2)

IC50 [2, 4]: 340 nM
Molecule: CCCC[C@H](NC(=O)[C@H](Cc1c[nH]c2ccccc12)NC(=O)CNC(=O)[C@@H](NC(=O)[C@H](Cc1ccc(OS(=O)(=O)O)cc1)NC(=O)[C@H](CC(=O)O)NC(=O)COCCOCCNC(=O)COCCOCCNC(=O)CC[C@H](NC(=O)CCCCCCCCCCCCCCCCC(=O)O)C(=O)O)[C@@H](C)CC)C(=O)N(C)[C@H](CC(=O)O)C(=O)N(C)[C@@H](Cc1ccccc1)C(N)=O [Example 47, 2-[2-[2-[[2-[2-[2-[[(4S)-4-Carboxy-4-(17-carboxyheptadecanoylamino)butanoyl]amino]ethoxy]ethoxy]acetyl]amino]ethoxy]ethoxy]acetyl-Asp-sTyr-Ile-Gly-Trp-Nle-DMeAsp-MePhe-amide] ({C18 diacid-γGlu-AEEA-AEEA}-D[sY]IGW[Nle][dNMeD][NMeF]-NH2)

EC50 (CCK-2R) [3]: > 1000 nM
Molecule: Asp-sTyr-Nle-Gly-Trp-Nle-DMeAsp-MePhe-amide (peptide)

EC50 (CCK-2R) [3]: > 1000 nM
Molecule: Asp-sTyr-Pro-Gly-Trp-Nle-DMeAsp-MePhe-amide (peptide)

EC50 (CCK-2R) [3]: > 1000 nM
Molecule: DGlu-sTyr-Leu-Gly-Trp-Nle-DMeAsp-MePhe-amide (peptide)

EC50 (CCK-2R) [3]: 920 nM
Molecule: Glu-sTyr-Leu-Gly-Trp-Nle-DMeAsp-MePhe-amide (peptide)

EC50 (CCK-2R) [3]: > 1000 nM
B1: Glu-sTyr-Leu-Gly-Trp-Nle-DMeAsp-Phe-amide (peptide)
peptide: E[sY]LGW[Nle][dNMeD]F-NH2
modifications: N-terminus assumed
SMILES: CCCC[C@H](NC(=O)[C@H](Cc1c[nH]c2ccccc12)NC(=O)CNC(=O)[C@H](CC(C)C)NC(=O)[C@H](Cc1ccc(OS(=O)(=O)O)cc1)NC(=O)[C@@H](N)CCC(=O)O)C(=O)N(C)[C@H](CC(=O)O)C(=O)N[C@@H](Cc1ccccc1)C(N)=O
notes: X = Nle or Nal

EC50 (CCK-2R) [3]: > 1000 nM
Molecule: E[sY]LGWQ[dNMeD]F-NH2 [Glu-sTyr-Leu-Gly-Trp-Gln-DMeAsp-Phe-amide]
